Assay: label from the status in PepcDB records
With “MAELLAAGPSGVAGAVARAMERSAPGSGASWYGGDHTDFRDGVFLREVIGVQVVVQEGGTAVPEAMTGLPPRPGGFTGRDRETEDLLRALDPDGAQSAAAPVASVSGLGGIGKTALAVETAHLARERGWFPGGILFIDLHGYDREPVTADRSLRTLLHALGIPPEHMPTTTDERAALYRSTLAVRAGERGGMLVLADNASSAEQVRPLLPGDFRHRVLVTSRDRLPQLGARLLPLDELGTREAYELLDRALRIADPHDGRVGDDPGTTGRLASLCGHLPLALQIAAALLAADPAKPVSELVAELAEAHDRLDHLDDGERSVRAAFELSYRRLPPEQARLLRLLALAPGPEVSDEVVAALVGADRPPVRDQHALARAHLVERGHTRGSWRLHDLVRVFGAGVVARAEGDAARARVLRHYLERARAADARLKPRTEDDEGTRPFRSREEALAWFDAERAGLVAAVQWATDRQLAADAVRLAGALGEYLDWRRRFDDSVTVCGAVCAAARRAGDEAAEAAAWNRTGTALRGNRRLREAYDAHRRAHDLYDALGHDNGRAMALSNLGAILGDVGQVDDAVDAFRLALGLFRRTGDRHSEAGVWNNLALILRKSGRVDEALDALRSALGLYRETGDRPREGRARHNYAVALNARGRTAEAVTACLDSLDICEEFEDWHGAARTLYALGLVHETAGDAERARVRMTQAADAYERAGSPKEAEQARRAARLTGPAPTGTPAPAAPPDRTADSGPPGPRPPGVPGNAGP” the protein production was “failed”.
For “MAENHCELLPPAPSGLGAGLGGGLCRRCSAGMGALAQRPGGVSKWVRLNVGGTYFLTTRQTLCRDPKSFLYRLCQADPDLDSDKDETGAYLIDRDPTYFGPVLNYLRHGKLVINKDLAEEGVLEEAEFYNITSLIKLVKDKIRERDSRISQMPVKHVYRVLQCQEEELTQMVSTMSDGWKFEQLVSIGSSYNYGNEDQAEFLCVVSKELHNTPYGTTSEPSEKAKILQERGSRM”, the protein production was “not failed”.
With “MAEPKQSSLSEVKTNVIGSRKEEKESMFHGKETHGRSEDIDEKTRVDDVKGPGVLGRMMEEMEAIVDAVTPNKSSDK” the protein production was “failed”.
In the case of “MAEPVQEELSVLAAIFCRPHEWEVLSRSETDGTVFRIHTKAEGFMDADIPLELVFHLPVNYPSCLPGISINSEQLTRAQCVTVKEKLLEQAESLLSEPMVHELVLWIQQNLRHILSQPETG”, the protein production was “not failed”.
For “MAEQDLTMIVGTYTSGDSKGLYSFRFNEENGTATALSEAEVENPSYLVPSADGKFIYAVSEFSNEQAAANAFAFNKEEGTFRLLNTQKTGGEDPCYIITNGSNVVTANYSGGSISVFPIDKDGSLLPASEVVKFKGSGADKERQEKPHLHCVRITPDGKYLFADDLGTDQIHKFIVNPNAKADNEDVFLKEGSPASYKVEAGSGPRHLTFAPNGSYAYLINELSGTVIAFEYNDGELKEIQTIAADTVGAKGSGDIHISPDGKFLYASNRLKADGLAIFSIHPENGMLTKVGYQLTGIHPRNFIITPNGKYLLVACRDSNVIQVYERDTDTGLLTDIRKDIKVDKPVCIKFVPLEHHHHHH”, the protein production was “not failed”.
With “MAERINPVVKAVLEWGPIAAFFLGYVKLKDETFTVAGTDYQGFIIVTAAFIPLMVICTGLLWWLSGKLSKMQVATVVLVVVFGGLSVWLNDDRFFKMKPTMIYLLFGVLLGIGLLRGQSWLRLVLEEAIPLQDEGWMILTRRVMAFFFALAIANEAVWRLMSTDAWVNFKTFGLPLAIFVFFMTQSGLFKRYNPERKDEA” the protein production was “not failed”.
With “MAERLGILVGGGPAPGINSVISSVTIEAINNGLEVIGIYDGFKHLVEGKTNMVKKLSIEDVSRIHIEGGSILRTSRVNPAKSEETLEKTVQTLKKLGIKYLVTIGGDDTAFSASKVCERSKGEIKVVHVPKTIDNDLPLPENMPTFGFETARHVATELVYNLMQDSRTTNRWYFVAMMGREAGHLALGVGKAASATITIIPEEFKEGVTLEEVCDVLDGAILKRKLMGRDDGVAVIGEGIAEKMDPEELANIPGVIVEKDPHGHLRLAEIPLATILKRAIERRYAERGERIHIVDVTIGYELRSARPIPFDIVYTRTLGYGAVRFLLGDYSDLPGGMVCVVGGRIKILPFDAFMDPKTGRTKVRVVDVRSEDYRVARKYMIRLEKKDLEDPETLEKLAKLAKMEPEEFKKKYWHTTELP” the protein production was “failed”.
With “MAETAETINTTISSPPPESESSTTISAMTDPTSQEAASKDTDLTKEAESEKKPGGISLRIWPPTQKTRDAVLNRLIETLSTESILSKRYGTLKSDDATTVAKLIEEEAYGVASNAVSSDDDGIKILELYSKEISKRMLESVKARSNASVGNGSVEDANTDASEVSKDDAGPASEEEKSEA” the protein production was “failed”.
